Experiment in all cases: cell_activity
Data set [1] relates to GA7_R TALEN right monomer. The following applies: paired with GA7_L, 2 ug per monomer, CD34+ cells.
The test system of data set [2] is GA7_EK TALEN right monomer. Conditions: GA7_EK pair, CD34+ cells; GA7 50%.
Data set [3] deals with GA6_L17 TALEN left monomer. Conditions: paired with GA6_R, K562 cells.
The subject of data set [4] is GA7_EK TALEN left monomer. The following applies: GA7_EK pair, CD34+ cells; GA7 50%.
A further data set has as its system GA7_L TALEN left monomer. Conditions: paired with GA7_R, 2 ug per monomer, CD34+ cells.
The subject of data set [5] is AAVS1_R TALEN right monomer. The following applies: paired with AAVS1_L, 2 ug per monomer, K562 cells.
Data set [6] has as its system GA6_L19 TALEN left monomer. Conditions: paired with GA6_R, K562 cells.
Data set [7] deals with GA6_EK TALEN left monomer. The following applies: GA6_EK pair; GA6 54% in same table.
Data set [8] concerns GA6_L (GA6_L14) TALEN left monomer. The following applies: paired with GA6_R, K562 cells.
In data set [9] the test system is GA6_EK TALEN right monomer. The following applies: GA6_EK pair; GA6 54% in same table.
For data set [10], the system named is GA6_R TALEN right monomer. Conditions: paired with GA6_L, 2 ug mRNA per monomer, K562 cells.
Data set [11] has as its system AAVS1_L TALEN left monomer. Conditions: paired with AAVS1_R, 2 ug per monomer, K562 cells.

For the sequence “ATGGTAGAGAATGAGAGGGGGA (double strand) [GA7 right half-site (printed top strand)]”, the activity in data set [1] amounted to 70 % editing; in data set [2], 20 % editing. In data set [3], “TGTGTAACAATGCCTGTG (double strand) [GA6_L17 left half-site]” displayed an activity of 98 % editing.

Turning to “TGCTCAGCCCAGCTCAGCCT (double strand) [GA7 left half-site]”, the activity in [4] is 20 % editing; in the data set with GA7_L TALEN left monomer, 70 % editing. In data set [5], “AGGATTGGTGACAGAAA (double strand) [AAVS1 right half-site (printed top strand)]” gave an activity of 93 % editing.

With “TGGAGTGTGTAACAATGCCT (double strand) [GA6_L19 left half-site]”, in [6], the activity came to 86 % editing. In the case of “TGTGTAACAATGCCT (double strand) [GA6 left half-site]”, the activity in data set [7] is 36 % editing; in [8] it was 96 % editing. As to “AGTGCATGGCTGCAATGTGTGA (double strand) [GA6 right half-site (printed top strand)]”, the figures for the activity in data set [9] and in [10] were 36 % editing and 91 % editing, respectively.

Take “TCCCCTCCACCCCACAGT (double strand) [AAVS1 left half-site]”: in data set [11], the activity amounted to 93 % editing.

The record behind these values is patent US20210147922.
